Test results published in paper PMC6192543 (Journal of the American Chemical Society, 2018).

Target: human A2A adenosine receptor variant A2AAR[K233W] (human, UniProt P29274 1-316, N154Q | K233W, uniformly 15N-labelled, ~70% 2H)
Assay: NMR titration

Sequence of human A2A adenosine receptor variant A2AAR[K233W] (P29274 1-316 N154Q/K233W): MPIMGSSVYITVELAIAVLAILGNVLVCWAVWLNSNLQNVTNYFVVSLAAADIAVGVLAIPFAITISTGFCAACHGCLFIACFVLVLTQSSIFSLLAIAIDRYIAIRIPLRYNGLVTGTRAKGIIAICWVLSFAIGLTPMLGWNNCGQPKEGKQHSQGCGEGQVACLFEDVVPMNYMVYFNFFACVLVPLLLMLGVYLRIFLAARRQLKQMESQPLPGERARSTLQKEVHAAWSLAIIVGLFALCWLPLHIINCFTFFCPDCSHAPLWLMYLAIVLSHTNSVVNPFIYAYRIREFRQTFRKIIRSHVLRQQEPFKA

binding result: binds
Binder: RVFNDARDIIQRMHLRQYELL (peptide, UniProt P63092 374-394, looked up) [C-terminal polypeptide GαS(374–394)[C379A]]
